Consider four molecules from article PMC10914751 (Nature Communications, 2024).

The labels stand for the following.
B1: Plk4 CPB(581–808) (domain or fragment, UniProt O00444 581-808, looked up)
chain: GYQNRTLRSITSPLVAHRLKPIRQKTKKAVVSILDSEEVCVELVKEYASQEYVKEVLQISSDGNTITIYYPNGGRGFPLADRPPSPTDNISRYSFDNLPEKYWRKYQYASRFVQLVRSKSPKITYFTRYAKCILMENSPGADFEVWFYDGVKIHKTEDFIQVIEKTGKSYTLKSESEVNSLKEEIKMYMDHANEGHRICLALESIISEEERKTRSAPFFPIIIGRKPG
notes: Polo-like kinase 4 (Plk4), cryptic polo-box (CPB), residues 581-808; a TEV site follows His-MBP and the legends call the protein CPB(581–808); Two CPB chains are estimated for each Vpr•VprBP; source: E. coli, purified

In assay [1] the target is T1, Vpr•VprBP WD40-AR complex ( | HIV-1 (NL4-3 isolate), UniProt Q9Y4B6 1057-1507; P12520 1-96).
T1 construct: DNA synthesised by GenScript; TEV digestion is told for the SEC sample; also called VprBP (WD40-AR)•Vpr complex; source: Trichoplusia ni (Tni)-FNL insect cells, co-expressed, purified (HisTrap, TEV digestion); not shown: His, N-terminal, cleaved; MBP, N-terminal, cleaved; copies: 1 + 1
The assay is described as follows: SEC; purified proteins (Vpr, VprBP WD40-AR, Plk4 CPB, DDB1); TEV-digested HisTrap eluate of Vpr•VprBP mixed with Plk4 CPB; 20 mM Tris-HCl pH 7.5, 100 mM NaCl, 10% glycerol; stoichiometry estimated from Coomassie intensity. To be noted: both partners purified.

The assay “Plk4 CPB(581–808)” has as its target B1. Described as above. To be noted: both partners purified.
In another assay the target is T2, DDB1 (purified) (UniProt Q16531 1-1140).
T2 construct: DDB1
T2 sequence (Q16531 whole entry): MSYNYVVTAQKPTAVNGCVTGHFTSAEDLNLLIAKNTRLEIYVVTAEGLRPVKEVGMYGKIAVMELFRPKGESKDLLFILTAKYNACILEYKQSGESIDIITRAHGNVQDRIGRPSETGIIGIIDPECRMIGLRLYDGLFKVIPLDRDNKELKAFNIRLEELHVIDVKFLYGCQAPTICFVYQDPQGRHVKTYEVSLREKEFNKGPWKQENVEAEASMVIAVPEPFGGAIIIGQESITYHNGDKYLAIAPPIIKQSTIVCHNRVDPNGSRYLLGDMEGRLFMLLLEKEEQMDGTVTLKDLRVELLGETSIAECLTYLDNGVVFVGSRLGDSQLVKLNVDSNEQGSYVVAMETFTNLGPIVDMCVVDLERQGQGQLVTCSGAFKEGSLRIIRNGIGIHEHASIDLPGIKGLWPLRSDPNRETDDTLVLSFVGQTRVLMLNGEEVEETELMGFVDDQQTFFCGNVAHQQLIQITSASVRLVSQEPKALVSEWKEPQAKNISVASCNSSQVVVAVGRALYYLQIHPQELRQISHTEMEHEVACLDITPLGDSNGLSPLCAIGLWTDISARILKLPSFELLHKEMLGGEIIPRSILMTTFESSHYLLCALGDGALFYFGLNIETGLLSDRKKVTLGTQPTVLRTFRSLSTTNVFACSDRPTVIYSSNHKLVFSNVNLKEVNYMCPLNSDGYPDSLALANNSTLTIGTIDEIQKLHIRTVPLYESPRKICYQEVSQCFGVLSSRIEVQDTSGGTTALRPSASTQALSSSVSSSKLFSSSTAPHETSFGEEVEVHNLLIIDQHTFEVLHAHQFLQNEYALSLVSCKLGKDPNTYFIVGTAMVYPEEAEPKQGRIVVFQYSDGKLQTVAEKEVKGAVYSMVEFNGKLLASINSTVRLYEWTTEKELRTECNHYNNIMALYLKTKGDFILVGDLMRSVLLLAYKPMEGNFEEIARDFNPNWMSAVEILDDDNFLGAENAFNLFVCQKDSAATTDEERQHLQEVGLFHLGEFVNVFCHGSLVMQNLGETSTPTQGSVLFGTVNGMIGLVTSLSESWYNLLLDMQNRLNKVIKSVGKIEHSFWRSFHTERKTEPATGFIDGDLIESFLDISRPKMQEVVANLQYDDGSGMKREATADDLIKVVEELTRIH
The description is as above. To be noted: both partners purified.

For the next assay, the target named is T3, Plk1 (UniProt P53350 1-603).
T3 construct: Polo-like kinase 1 (Plk1); also called mitotic Plk1; source: HEK293T, transfected, in lysate
T3 sequence (P53350 whole entry): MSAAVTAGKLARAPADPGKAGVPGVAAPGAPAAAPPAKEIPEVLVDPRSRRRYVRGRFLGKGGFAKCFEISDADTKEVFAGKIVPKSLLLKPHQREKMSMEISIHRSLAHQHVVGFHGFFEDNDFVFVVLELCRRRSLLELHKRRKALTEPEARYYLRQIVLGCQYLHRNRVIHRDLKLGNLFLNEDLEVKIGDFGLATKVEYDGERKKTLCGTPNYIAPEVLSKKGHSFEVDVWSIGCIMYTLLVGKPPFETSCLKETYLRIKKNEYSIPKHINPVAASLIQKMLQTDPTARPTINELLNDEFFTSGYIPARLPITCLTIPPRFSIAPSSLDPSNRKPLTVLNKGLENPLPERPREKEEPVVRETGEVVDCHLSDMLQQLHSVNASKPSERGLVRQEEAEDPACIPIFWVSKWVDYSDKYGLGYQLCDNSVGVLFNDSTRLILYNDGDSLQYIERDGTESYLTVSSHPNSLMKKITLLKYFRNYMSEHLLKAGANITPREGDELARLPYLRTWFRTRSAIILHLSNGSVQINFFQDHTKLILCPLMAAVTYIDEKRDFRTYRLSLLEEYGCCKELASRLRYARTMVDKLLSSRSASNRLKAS
As to the kind of experiment: co-IP; HEK293T cells transfected with the indicated constructs; TBSN buffer (20 mM Tris-HCl pH 8.0, 120 mM NaCl, 0.5% Nonidet P-40, 5 mM EGTA, 1.5 mM EDTA, 2 mM DTT); immunoblot; Supplementary Fig. 2b under thymidine or nocodazole treatment. Particulars: partners not purified. For orientation: Immunoblotting shows a protein as a band on a membrane.

Usually stoichiometry N stands for a count of units in the complex or per binding partner.

Take B1: the “stoichiometry N” value in assay [1] was about 2.

B2: Vpr (co-expressed with VprBP WD40-AR in insect cells) (natural protein)
chain: MEQAPEDQGPQREPYNEWTLELLEELKSEAVRHFPRIWLHNLGQHIYETYGDTWAGVEAIIRILQQLLFIHFRIGCRHSRIGVTRQRRARNGASRS
notes: also called 11-kDa Vpr
With B2, the binding result with Plk4 CPB(581–808) was “binds”.

B3: VprBP WD40-AR(1057–1507) (domain or fragment)
chain: not shown
notes: source: Trichoplusia ni (Tni)-FNL insect cells, purified (HisTrap, TEV digestion, SEC); not shown: His, N-terminal, cleaved; MBP, N-terminal, cleaved
Regarding B3, the binding result with DDB1 (purified) is on record as “binds”.

B4: VprBP (transfected; construct not specified in the text) (natural protein)
chain: not shown
notes: VprBP (DDB1-CUL4-Associated Factor 1); may be full length or a WD40-containing fragment, and in some panels perhaps the endogenous protein; source: HEK293T, transfected, in lysate
B4: in the assay with Plk1, the “fold weaker binding than Plk4” value was about 3 fold.
